One experiment has as its target ztnf4 (human) (UniProt Q9Y275).
The target of another experiment is T1, soluble I125-ztnf4 (human, UniProt Q9Y275 134-285, limits assumed, 125I label).
T1 construct: also called ztnf4 sol
As to the kind of experiment: Scatchard analysis of soluble I125-ztnf4 binding to stable BHK transfectants expressing BCMA.

For “BCMA-Ig (from UniProt Q9Y275) (Fc fusion)”, the IC50 (read off the curve), inhibition of ztnf4-driven human B cell proliferation with ztnf4 (human) was 0.1 µg/mL.

B1: TACI-Ig soluble receptor (TACI-Fc4) (Fc fusion, part only; not given: Fc4 carrier, part only)
chain, part: MSGLGRSRRGGRSRVDQEERFPQGLWTGVAMRSCPEEQYWDPLLGTCMSCKTICNHQSQRTCAAFCRSLSCRKEQGKFYDHLLRDCISCASICGQHPKQCAYFCENKLRSPVNLPPELRRQRSGEVENNSDNSGRYQGLEHRGSEASPALPGLKLSADQVALVYS
Molecule B1 showed an IC50 (read off the curve), inhibition of ztnf4-driven human B cell proliferation with ztnf4 (human) of 0.1 µg/mL.

B2: BCMA expressed on cells (receptor)
chain: MLQMAGQCSQNEYFDSLLHACIPCQLRCSSNTPPLTCQRYCNASVTNSVKGTNAILWTCLGLSLIISLAVFVLMFLLRKISSEPLKDEFKNTGSGLLGMANIDLEKSRTGDEIILPRGLEYTVEECTCEDCIKSKPKVDSDHCFPLPAMEEGATILVTTKTNDYCKSLPAALSATEIEKSISAR
notes: also called BCMA-BHK
Turning to B2, the affinity with soluble I125-ztnf4, expressed as Kd, was 1.25 nM.

Source of the values: patent US20060286093A1 (ZymoGenetics, published 2006).
